Columns and labels:
Assay in all cases: EMSA
[1] = tested on: I-S-I complex (ISW2 with Snf2 ATPase domain) ((yeast))
ISW2 complex ((yeast)) = tested on: ISW2 complex ((yeast))
[2] = tested on: SWI/SNF complex ((yeast))

217 bp DNA
Kd [1]: 31 nM
Kd (ISW2 complex ((yeast))): 25 nM
Kd [2]: 20 nM

From article PMC3378860
